Laboratory results published in the nanobody polyreactivity screen of Harvey et al. (2022).

Assay: yeast display, Sf9 membrane polyspecificity reagent, FACS + sequencing; frameworks hold sequencing errors
Summary of the method: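 Using colony PCR, genes from sorted yeast display clones were amplified, then sequenced on MiSeq at 2 × 250 and filtered by CDR length. The clones had been stained with 10% biotinylated, detergent-solubilized Sf9 membrane reagent for 1 hour at 4 °C and sorted by FACS into low and high (top ~1%) gates on anti-HA and streptavidin fluorescence. Polyreactivity labels come from the gate of origin.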

Sequence	polyreactivity (PSR sort gate)
QVQLVESGGGLVQAGGSLRLSCAASGRISSGYAMGWYRKAPGKERELVAAISSIGGRTYYADSVKGRFTISRDNANNTVYLQMNSLKPEDTAVYYCNAGTYRRIGGYDYWGQGTQVTVSS	high polyreactivity
QVQLVESGGGLVQAGGSLRLSCAASGYNFVKNAMGWYRQAPGKERELVAAISTRGGRTYYADSVKGRFTISRDNAKNTVYLQMNSLKPEDTAVYYCAAVHQTSYYDANSYGYWGQGTQVTVSS	high polyreactivity
QVQLVESGGGLVQAGGSLRLSCAASGRTFWYYAMGGYRQAPGKERELVAYADSVKGRFTISRDNAKNTVYLQMNSLKPEDTAVYYCAVGPVVWFSSSLYYTDYYYWGQGTQVTVSS	low polyreactivity
QVQLVESGGGLVQAGGSLRLSCASSGSILVHYAMGRYRQAPGKERELFAAISRGGSTNYADSVKGRFTISRDNAKNTVYLQMNSLKPEDTAVYFCAARHGQSWQWLEYDYWGHGTQVTVSS	low polyreactivity
QVQLVESGGGLVQAGGSLRISCAASGFIFGKNDMGWYRQATWKERELVAAITIGGSTNYADSVKGRFTFSRDNAKNTVYLQMNSLKPEDTAVYYCNADSYHYGTSLYNYWGQGTQLTVSS	low polyreactivity
QVQLVESGGGLVQAGGSLRLSCAASGFTSDAYAMGCYRQAPGKDRELVAAISGSGDITYYADSVKGRFTISRDNAKYTVYFQMNSLKPEDTAVYYCSVGSYYAWFYYWGQGTQVTVSS	high polyreactivity
QVQLVESGGGLVQAGGSLRLSCAASGYTFLAYAMGWYRQAPGKERELVAAISRSGVSTYYADSVKGRFTISRDNAKNTVYLQMNILKPEDTAFYYCAKGVRYQQYHIMYYWGQGTQVTVSS	high polyreactivity
QVQLVESGGGLVQAGGSLRLSSAASGRIFPYYAMGWYRQAPGKERELVAAITSSGGSTYYADSVKGRFTISRDTAKNTVYFQMNSLKPEDSAVYYCAGTSPYDDYPYTRGIYAYGYWGQCTQVTVSS	low polyreactivity
QVQLVESGGGLVQAGGSLRLSCAASGSTFRFNAMGWYRQAPGKEREFVAAIRFTGGSTYYADSVKGRFTISRDNAKNTVYLQMNSLKPEDSAVYYCNNADEYSTVEYDYWGQGTQVTVSS	low polyreactivity
QVQLGESCGGLVQAGGSLRLSCAASGPIFRSYAMGWYRQAPGKERELVARITSGGSTNYADSVKGRFTISRDNAKNTVYLQMNSLKPEDSAVYYCARDWGKSEYDYWGQGTQVTVSS	high polyreactivity
QVQLVESGGGLVQAGGSLRLSCAASGFTFTYNAMGWDRQAPGKERELVAAISWSGGSTRYADSVKGRFTISRDNAKKTVYFQMNSLKPEDTGVYYFNKYTYRGRTGEINYWGQGTQVTVSS	high polyreactivity
QVQLVESGGGLVQAGGSLRLICAASGSIFDRYAMGWYRPAPGKDRELVAAITGSGGSTYYADSVKGRFRISRDNAKNTVYLQMNSLKPEDTAVYYGNARARGAYVRYGYWGQGTQVTVSS	high polyreactivity
QVQLVESGGGLVQAGGSLRLSCAASGRTFLINSMGWYRQAPGKERELVAGITRNGGTTYYADSVKGRFTISRDNAKNTVYLQMNSLKPEDTAVYYCAKRYPSWFNYWGQGTQVTVSS	high polyreactivity
QVQLVESGGGLVQAGGSLRLSCAASGFIFKSYAMGWYRQAPGKERELVAAITRGDNTNYADSVKGRFTISRDNAKNTFYLQMNSLKPEDTAVYYCAADRYTVRMDYWGQGTQVTVSS	high polyreactivity
QVQLVESAGGLDQAGGSLPLSCAASGRIFRYNAMGWYRQAPGKERELVSAITWNGASTFYADSVKGRFTISRDNAKNSVYLLMNSLKPEDTAVYYCAYVRDFSGYWLWSYNLYDYWGQGTKVTVSS	high polyreactivity
QVQLVESGGGLVQAGGSLRLSCAASGYTFHGYAMGWYRQAPGKESELVAVITQRGGSTSYADSVKGRFTISRDNAKITVYLQMNSLKPEDTAVYYCNASAWLVVARTRYGYWGQGTQVTVSS	low polyreactivity

Sequence	polyreactivity (PSR sort gate)
QVQLVESGGALVQAGGSLRLSCAASGFIFPYYAMGWYRQAPGKERELVAAITFSATRTYYADSVKGRFTISRDNAKNTVYLQMNSLKPEDTAVYYCAVGSASSGYEYDYWGQGTQVTVSS	low polyreactivity
QFQLVESLGGLDQAGGSLRLSFAASGLIILAYAMVWYRQAPGKERELVAAISRNRGSTYYADSVKGRLTISRDNAKNTVYLQMNSLKPEVTEVYYCNNVSRSSVYLDYYYWGQGTQVTVSS	high polyreactivity
QVQLVESGGGLVQAGGSLRLSCAASGFIFSKNVMGWYRQAPGKERELVARITRSGGTTYYADSVKGRFTISRDNAKNTVYLQMNSLKPEDTAVYYCAARRYGSTSISWYDYWGQGTQVTVSS	high polyreactivity
QVQLVESGGGIVQAGGSLRVSCVSSGRTCSRYAMGWSRQAPGKDRELVAAISRRGGSTYYADSVKGRFTISRDNAKNTVYLQMKSLKREDTAVYYCAAGYITWGSGNWVVTPYDYWGQGSQVTVSS	high polyreactivity
QVQLVESGGGLVQAGGSLRLSCAASGLTLYRNAMGWYRQAPGKERELVATINFSGGSKYYADSVKGRFTISRDNAKNTVYLQMNSLKPEDTAVYFCNARGYWHYSPTKFDYWGQGTQVTVSS	low polyreactivity
QVQLVESGGGLVQAGGSLRLSCAASGSTFYFYAMGGYRQAPGKERELVAVISSGGRTYYADSVKGRFTISRDNAKNTVYLQMNSLKPEDTAVYYCAASWPSSLTYYYWGQGTQVTVSS	low polyreactivity
QVQLVESGGGLVQAGGSLRLSCAASGSTFASYAMGWYRQAPGKERELVAAIRWRGGTTYYADSVKGRFTISRDNAKNTVYLQMNSLKPDDTAVYYCNADRYYLYYYWGQGTQVTVSS	low polyreactivity
QVQLVESGGGLVQAGGSLRLSCAASGRILNVYAMGWYRQAPGKERELVAAINYRGTNTYYADSVKGRFTISRDNAKNTVYLQMNSLKPEDTADYYCAARRHVYLRGSTFEFNYWGQGTHVTVSS	high polyreactivity
QVQLQESGGGLVQASGSPRLSCAASGNIFDADIMGWYRQAPGKQCELVASITDGGSTNYADSEKGRFTISSDNAKNTVYLQMNSLKPEDTAVYYCAAIAYPDIPTYFDYDSDYFYWGQGTHVTVSS	high polyreactivity
QVQLVESGGGLVQAGGSLRLSCAASGFTFWTYAMGWYRQAPGKERELVAAITGIGGSTYYADSVKGRFTISRDNAKNTVYLQMNSLKPEDTAVYYCAARYQATYPSMGYWGQGTQVTVSS	low polyreactivity
QVQLVESGGGLVQAGGSLLLSCAASGFTFSYYAMGWYRQAPGKERDLVAAISWDGDSTYYADSVKGRFTISRDNAKNTVYLQMNSLKPEDTAVYYSAAEFSYYWDGYDYWGQGTQVTVSS	high polyreactivity
QVQLVESGGGLVQAGGSLRLSCAASGRTFDSYAMGWYRQAPGKERELVAAISRAGGTNYADSVKGRFTISRDNAKLTVYLQMNRLKPDDTEVYYCAVRQAVYGLRSDFYYWGQGSQVTVSS	high polyreactivity
QVQLVESGGGLVQAGGSLRLSSPASGITFDKYAMGWYRQAPGKERELVAAISRSAGSTYYADSVKGRFTISRDNEKYSVYLQMKSLKPEDCAVYLCAGDPLIYDDYYWGQGTNVTVSS	high polyreactivity
QVQLVESGGGLVQAGGSLRLSCAASGSIFAGYAMGWYRQAPGKERELVATITSSSRTNYADSVKGRFTISRDNAKNTVYLQMNSLKPEDTAVYYCAARGRYVIDGYRMYYWGQGTQVTVSS	high polyreactivity
QVQLVESGGGLVQAGGSLRLSCAASGSIFDSYAMGWYRQAPGKERELVADITSDGSTHYADSVKGRFTISRDNAKNTVYLQMNSLKAEDTAVYYCAADYFFYWLGVPVVDVYYWGQGTQVTVSS	low polyreactivity
